Measurements from paper PMC4225772.

B1: tissue factor (TF): TFN11A (protein)
parent chain: METPAWPRVPRPETAVARTLLLGWVFAQVAGASGTTNTVAAYNLTWKSTNFKTILEWEPKPVNQVYTVQISTKSGDWKSKCFYTTDTECDLTDEIVKDVKQTYLARVFSYPAGNVESTGSAGEPLYENSPEFTPYLETNLGQPTIQSFEQVGTKVNVTVEDERTLVRRNNTFLSLRDVFGKDLIYTLYYWKSSSSGKKTAKTNTNEFLIDVDKGENYCFSVQAVIPSRTVNRKSTDSPVECMGQEKGEFREIFYIIGAVVFVVIILVIILAISLHKCRKAGVGQSWKENSPLNVS
B2: tissue factor (TF): TFN11A/N124A/N137A (protein)
parent chain: B1 parent chain
B3: tissue factor (TF): TFN11A/N137A (protein)
parent chain: B1 parent chain
B4: tissue factor (TF): tunicamycin (protein)
parent chain: B1 parent chain
B5: tissue factor (TF): TFN11A/N124A (protein)
parent chain: B1 parent chain
B6: tissue factor (TF): TFN11A/N124A/N137A-GFP (protein)
parent chain: B1 parent chain

Tests used:
[1] = FX activation assay, CHO cell surface; conditions: glycan lost; control: wild-type TF-GFP
[2] = CHO lysates, GFP immunoblot and GFP fluorescence; conditions: glycan lost; control: wild-type TF-GFP
[3] = cell-surface TF antigen, radiolabelled mAb binding, CHO; conditions: glycan lost; control: wild-type TF-GFP
TF antigen ELISA, PBMC = conditions: glycan lost; control: LPS-stimulated PBMC without tunicamycin
[4] = FX activation on intact PBMC; conditions: glycan lost; control: LPS-stimulated PBMC without tunicamycin
[5] = FX activation assay, HUVEC surface; conditions: glycan lost; control: wild-type TF-GFP
[6] = FX activation in freeze-thaw HUVEC lysates; conditions: glycan lost; control: wild-type TF-GFP
[7] = confocal microscopy, GFP and TF immunostaining, HUVEC; conditions: glycan lost; control: wild-type TF-GFP

| Protein | enzymatic_activity [1] | expression_or_secretion [2] | localisation_or_trafficking [3] | expression_or_secretion (TF antigen ELISA, PBMC) | enzymatic_activity [4] | enzymatic_activity [5] | enzymatic_activity [6] | localisation_or_trafficking [7] |
| --- | --- | --- | --- | --- | --- | --- | --- | --- |
| B1 | no change | no change | no change | – | – | – | – | – |
| B2 | no change | no change | no change | – | – | – | – | – |
| B3 | no change | no change | no change | – | – | – | – | – |
| B4 | – | – | – | no change | no change | – | – | – |
| B5 | no change | no change | no change | – | – | – | – | – |
| B6 | – | – | – | – | – | no change | no change | no change |
